According to paper doi:10.1101/2025.03.03.641048 (2025):
Blank lines part the entries; values can stand above or below the binder they belong to.

Target: IE-3 fragment antigen-binding (Fab) region, recombinant, labelled (labeled with the Blue-NHS labeling kit (chain not told) | labeled with the Blue-NHS labeling kit (chain not told))
Test: MST

Kd: 0.3 nM
B1: mouse ZP2 N-terminal ZP-N1 domain (mZP2-N1), His-tagged (domain or fragment)
chain: VSLPQSENPAFPGTLICDKDEVRIEFSSRFDMEKWNPSVVDTLGSEILNCTYALDLERFVLKFPYETCTIKVVGGYQVNIRVGDTTTDVRYKDDMYHFFCPAIQ

Kd: 8.9 nM
B2: mZP2 T103-Q138 linear epitope fused to maltose-binding protein (domain or fragment)
chain: TIKVVGGYQVNIRVGDTTTDVRYKDDMYHFFCPAIQ

Kd: 16.3 nM
B3: rZP2-N1 S113R (domain or fragment)
chain: SLPQSENPAFPGTLICDKDEVRVEFSSRFDMEKWNPSLVDTFGNEISSCTYALDLEKFILKFPYETCTIKVIGGYQVNIRVQDTNADVRYKDDVHHFFCPAIQ
